According to publication PMC4066673 (Biochemistry, 2012):

Target: the molecule itself
Assay: SEC-MALS

B1: His6-tagged (Δ1-39)hTHEM4 (enzyme, human, UniProt Q5T1C6 40-240, looked up)
chain: EVILKDCSVPNPSWNKDLRLLFDQFMKKCEDGSWKRLPSYKRTPTEWIQDFKTHFLDPKLMKEEQMSQAQLFTRSFDDGLGFEYVMFYNDIEKRMVCLFQGGPYLEGPPGFIHGGAIATMIDATVGMCAMMAGGIVMTANLNINYKRPIPLCSVVMINSQLDKVEGRKFFVSCNVQSVDEKTLYSEATSLFIKLNPAKSLT
- stoichiometry N: 2
